Reference: patent US20090104207A1 (published 2009)
*: point of attachment. Biotin = O=C1N[C@H]2[C@H](CS[C@H]2CCCCC(=O)*)N1

How the values were obtained:
[1] = biological target: HCV E1 envelope glycoprotein, genotype 1a strain H77, on retroviral pseudoparticles (hepatitis C virus genotype 1a strain H77, UniProt P27958 192-383); test: cell-based or functional assay
[2] = biological target: HCV E1 envelope glycoprotein, genotype 2a isolate JFH1, on retroviral pseudoparticles (hepatitis C virus genotype 2a, UniProt Q99IB8 192-383); test: cell-based or functional assay
[3] = biological target: HCV E1 envelope glycoprotein, genotype 4a isolate UKN4a, on retroviral pseudoparticles (hepatitis C virus genotype 4a); test: cell-based or functional assay
[4] = biological target: T1, IGP 2137 (hepatitis C virus); test: peptide ELISA (fine-mapping)
T1 construct: also called RMAWDM

[5] = biological target: T2, IGP 2254 (hepatitis C virus, SMILES …); test: BIAcore, antibody immobilized, peptide in solution
T2 peptide: Biotin-GGITGHRMAWDMMMNWS-NH2

[6] = biological target: T3, IGP 2138 (hepatitis C virus); test: ELISA, biotinylated peptide on streptavidin plates (FIG. 9)
T3 construct: also called WDMMMNW

[7] = biological target: IGP 2241 (hepatitis C virus); test: as above
[8] = biological target: IGP 2242 (hepatitis C virus); test: as above
[9] = biological target: IGP 3472 (hepatitis C virus); test: ELISA: biotinylated peptide on streptavidin-coated plate, serial dilution of 5D2; EC50 from Prism, shown as difference in log EC50 versus IGP 2254

HCV E1 envelope glycoprotein, genotype 2a isolate JFH1, on retroviral pseudoparticles, sequence (Q99IB8 192-383 limits assumed): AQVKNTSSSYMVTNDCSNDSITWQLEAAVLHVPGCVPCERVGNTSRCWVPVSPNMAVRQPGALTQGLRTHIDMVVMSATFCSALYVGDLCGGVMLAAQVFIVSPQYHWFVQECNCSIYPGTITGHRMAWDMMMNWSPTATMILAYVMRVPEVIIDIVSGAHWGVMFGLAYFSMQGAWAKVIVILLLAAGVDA
HCV E1 envelope glycoprotein, genotype 1a strain H77, on retroviral pseudoparticles, sequence (P27958 192-383 limits assumed): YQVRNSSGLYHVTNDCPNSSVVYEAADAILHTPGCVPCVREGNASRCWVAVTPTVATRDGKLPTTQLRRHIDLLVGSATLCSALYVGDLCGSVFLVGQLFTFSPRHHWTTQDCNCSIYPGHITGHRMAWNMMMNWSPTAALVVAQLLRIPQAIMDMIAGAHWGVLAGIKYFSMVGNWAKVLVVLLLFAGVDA

B1: 5D2 (antibody, V domains shown)
VH: QVQLVESGGGVVQPGRSLRLSCVASGFTFSHYAMHWIRQAPGKGLEWVAVVSYDGSNKFYVDSVKGRFTISRDNSKNTVYLQMNSLRAVDTAVYYCARDPGVVTGSWSDSDGPPIHWGQGTLVTVSS
VL: DIVVTQSPDSLAVSLGERATITCKSSQSVFYSSNNKNYLGWYQQKPGQPPKLLIYWASTRASGVPDRFSGSGSGTDFTLTISSLQAEDVAVYYCQQYYTSWAFGQGTKVEIKR
notes: also called 5D2H9; IGH 534
- lowest concentration of antibody exhibiting at least 50% neutralization of HCVpp versus control [1]: 25 µg/mL
- lowest concentration of antibody exhibiting at least 50% neutralization of HCVpp versus control [2]: 6.2 µg/mL
- lowest concentration of antibody exhibiting at least 50% neutralization of HCVpp versus control [3]: > 25 µg/mL
- binding result [4]: no binding
- Kd [5]: 0.06 nM
- koff [5]: 9.46e-05 s⁻¹
- kon [5]: 1.71e+06 M⁻¹ s⁻¹
- binding result [6]: no binding
- binding result [7]: no binding
- binding result [8]: binds
- binding result [9]: no binding
